# Experiment: soluble on expression in E. coli; label from the status in PepcDB or PDB records
row,Sequence,soluble on expression in E. coli
1,MQRVVVAIDAKRVDGEFMVFTHSGKKNTGILLRDWVVEVEKRGAGEILLTSIDRDGTKSGYDTEMIRFVRPLTTLPIIASGGAGKMEHFLEAFLAGADKALAASVFHFREIDMRELKEYLKKHGGSGQAVVVAIDAKRVDGEFMVFTHSGKKNTGILLRDWVVEVEKRGAGEILLTSIDRDGTKSGYDTEMIRFVRPLTTLPIIASGGAGKMEHFLEAFLAGADAALAASVFHFREIDMRELKEYLKKHGVNVRLEGLLEHHHHHH,soluble
2,SDSAFANLDAAGFLQIWQHFDADDNGYIEGKELDDFFRHMLKKLQPKDKITDERVQQIKKSFMSAYDATFDGRLQIEELANMILPQEENFLLIFRREAPLDNSVEFMKIWRKYDADSSGYISAAELKNFLKDLFLQHKKKIPPNKLDEYTDAMMKIFDKNKDGRLDLNDLARILALQENFLLQFKMDASSQVERKRDFEKIFAHYDVSRTGALEGPEVDGFVKDMMELVRPSISGGDLDKFRECLLTHCDMNKDGKIQKSELALCLGLKHKP,soluble
3,AGHMTSILSRNHVKVKGSGKASIMFAPGFGCDQSVWNAVAPAFEEDHRVILFDYVGSGHSDLRAYDLNRYQTLDGYAQDVLDVCEALDLKETVFVGHSVGALIGMLASIRRPELFSHLVMVGPSPCYLNDPPEYYGGFEEEQLLGLLEMMEKNYIGWATVFAATVLNQPDRPEIKEELESRFCSTDPVIARQFAKAAFFSDHREDLSKVTVPSLILQCADDIIAPATVGKYMHQHLPYSSLKQMEARGHCPHMSHPDETIQLIGDYLKAHV,soluble
4,MANTPGGGALIVGIEDKTGRIIGTELDIDWLRQGIFTRIDVAPDVVAKRVLGQRVLAIYVAAAAEPIEDTSDRLRWRVGDSCRPVDLEHHHHHH,not soluble
5,MYRVFVFDLDGTLLNDNLEISEKDRRNIEKLSRKCYVVFASGRMLVSTLNVEKKYFKRTFPTIAYNGAIVYLPEEGVILNEKIPPEVAKDIIEYIKPLNVHWQAYIDDVLYSEKDNEEIKSYARHSNVDYRVEPNLSELVSKMGTTKLLLIDTPERLDELKEILSERFKDVVKVFKSFPTYLEIVPKNVDKGKALRFLRERMNWKKEEIVVFGDNENDLFMFEEAGLRVAMENAIEKVKEASDIVTLTNNDSGVSYVLERISTDCLDE,soluble
6,MSNEMKILLANPRGFCAGVDRAISIVERALELYQPPIYVRHEVVHNRFVVEGLKQRGAIFVEELHEVPDNNIVIFSAHGVSQAVRQEAKQRDLTVFDATCPLVTKVHMEVARASRRNMEVVLIGHAGHPEVEGTMGQYSSETGGMYLVETPADVEKLKAIVKDPSDLHYVSQTTLSVDETADVIEELRRVFPDIQGPRKDDICYATQNRQDAVRELAGDVDVMVVVGSKNSSNSTRLKELAEKLGTPGYLTDCPEDIKPEWFEGKTKVGVTAGASAPEELVNQILERIKELVGARSVDEVLGREENMFFEVPKELQIKQVD,not soluble
7,ATGWNNALGHTAANEEPQEEASSQTTSIHFPLDYKQWQEEQDINLLNRALEEAKFNQRQAAELLGLSYHQLRGMVRKYGLVGQS,soluble
8,MSQAELPVLRVAYMPLIDCAPLVAASRLGLDHAYGLQLQLHRQASWAGVRDRLLAGEVDAAHTLASLVYAIDLGVGGPQCPMALLMTLNHNGQAITLAPALAQGVAAGQPLPQVLAEAGRRVVFAQTFPTGTHALWLYYWLAACGVDPMRDVDVVSIPPPQMPEALASGLVDGYCSGEPWAAVAEAQGSGQRVIRSGELWPEHPEKVLACRREFAALQPELSERLTACVLEACRWLDAAPANRAQCAQWLADPDYIGVPAAHLAACLDADAATVSVDPSALAFHRGGAVNMPWLSDGEWFLEQFQRWGWHTLQAADLARLHDIHRLDNYRRAAQRAGVTAPDADRRINRLFDTPAALEHHHHHH,not soluble
9,MSLDTMIASLEQSKKRAEEELSETESIRKEAEKLHKELQQQIIELNSKKDKMLEEAEQQAAEKVKAAMKEAEDIIHELRTIKEEHKSFKDHELINAKKRLEGAMPAFEKSKKPEKPKTQKRDFKPGDEVKVLTFGQKGTLLEKTGGNEWNVQIGILKMKVKEKDLEFIKSAPEPKKEKMITAVKGKDYHVSLELDLRGERYENALSRVEKYLDDAVLAGYPRVSIIHGKGTGALRKGVQDLLKNHRSVKSSRFGEAGEGGSGVTVVELKEGHHHHHH,soluble
10,MPITNASPENILRYLHAAGTGTKEAMKSATSPRGILEWFVNFFTCGGVRRSNERWFREVIGKLTTSLLYVNKNAFFDGNKIFLEDVNGCTICLSCGAASENTDPMVIIEVNKNGKTVTDKVDSERFWNVCRMLKLMSKHNIQQPDSLITEDGFLNLRGVNLAHKDFQGEDLSKIDASNADFRETTLSNVNLVGANLCCANLHAVNLMGSNMTKANLTHADLTCANMSGVNLTAAILFGSDLTDTKLNGAKLDKIALTLAKALTGADLTGSQHTPTPLPDYNDRTLFPHPIF,not soluble
11,MGSDKIHHHHHHMLRAGWFFEGIQDNDLLKLKEACKAFNLDGVLLSSLVLSRLYGVCYVLLGTVDGGDLDQPFDLNKLGIGRLEFFTVLKKKYIEADTSKYLSPKEAGGLLKQPEFYKLKLDGKSTQRIHHTRLYKFGHADVVNEEPVSVLQEVYEDLLDHAAVKKASASLVHESKIDVIRTPNLVDKIKEDMKSVAERFLSVGLLKGLNGMIVLDKEEEYDSKSYSFGGLPDLMREFSIQAAGAADMPYTILFGQSPAGMNATGEHDTRNYYDSIATKQTWSLKPFMMKLLRVIVQTTFGRQIPSLDVVFNPLWQLDAKVRSEVEKANAERDSKYLEMGIITEPQIAKQLVIDGVYSVIDEAHIKELETMVKLNDNDNSDPETTPPAGEET,not soluble
12,MSLGAMPTVRDLRLIPFRIPLKAPLRWGKSSELAALEHALLEVELSDGSIGRAEVAIRPTIYGETLGSVRAGLEYLRPRLLGLEADDQEGIRAVLEAFPFNFGLKGALDTALWEAWARSEGEELYQVLKPAKHRVRVAYILGLGEEDEVLEDARMAFGAGVRVFKVKVGRDLEADTRRILRLKEAFPEAELYADANESLPPKEAERYLLAWKELGLRYVEEPLPVEEVEARRALREKGILSLIADDAAMTPKDLKRELALNTFDVLNLKPARTGVTWTLEMLALARERGKKAMVGSQAQSAFGAYQSALLAFQQGVTEPCELAFHLKAEGGFFPFPPFREGWLYWEDLVEARFDEEAFARYALKEAEGHHHHHH,soluble
13,MGSDKIHHHHHHMPDTEEIARDSVVPPDVRRQAVNWLVELQSDIVTDETRDQWQKWRMSHPDHEYAWQQVEVFSRKLRGLPSPLAHAALTPPHSSSRRRAIKALTVLIFLGGGTWVAGEGRLWCWWPEDYCTGIGEHRAVTLSDGTGIELNSGSAITVNFDDTRRLIRLMNGEIMVTTAPDPRLANGIGAARPLLIETAQGILRAIGTRFTVRQFDVSQQGKSSVAVFEGAVEIQPITGRLRQLEVGQQAAFTRDGVIAVGMACEADTAWRQGMIVARDMPLIDFLAELGRHRSGWLSCDPAVAQLKVTGTYPLADIGKILAILQKTLPIDVQLFTRYWIRVGARQEDT,not soluble
14,MGSDKIHHHHHHMNRDYVCSEMFCMGTIISQKIYGEDKKEVLFKVENEMRRLEKAMNFYSSSSEISKLNKFGFENEIKLSKDVYHVIKNAKNFSKKTLGAFDISLAPIIKLWGIFCENERVPSVKEIEKNLSLVNYKNLVLNDYKRTVKFLVEDMKVDLGGIAKGYAADRAIDIYKGGGVKSASINLGGNVSVIGEKPDGKSWCIGVQNPLKKRGEIIGAISVKNKSVVTSGSYVRYFEKDNIKYHHIIDPKTGYPAKEELLSVTVIFENSMLCDAVSTAAFIAGADGGIELVKRFRDVEAIFITKDRKVIITKGIAKSFSLVEESGFQYL,not soluble
15,VVGHIVNDLQRRKVGDQEVVKFRVASNSRRRTSDGGWEPGNSLFITVNCWGRLVTGVGAALGKGAPVIVVGHVYTSEYEDRDGIRRSSLEMRATSVGPDLSRVIVRIEKPAYTGPSAGDLPAATGTGAAGAADAPASAADSVSDVVVDDAITGHNPLPISA,not soluble
16,MKGVNMFERFTDRARRVIVLAQEEARGLNHNYIGTEHILLGLIHEGEGVAAKALESMGISLEAVRQEVEEIIGHGSEPPAGHIPFTPRAKKVLELSLREGLQMGHKYIGTEFLLLGLIREGDGVAAQVLVKLGADLPRVRQQVIQLLS,not soluble
17,MGSDKIHHHHHHMKTFLVCALEPSANLHLKEVLKAYKKDFGEFELHGIYDESLCKEFDLNSKPLYSSHEFSAMGFIEVLPLIFKAKKAIKELANLSFTQKINGILCIDSPAFNIPFAKALKKAGSKIPRIYYILPQVWAWKKGRIPIIESHFDILASILPFDNQFFNKSTYIGHPLLDEIKEFKNQEDINHTFSKKDDEKTIAFLPGSRRSEIRRLMPIFKELSQKFKGKKILCVPSFNLEKLEVYGDISEFKIESNTPKVLKKADFAFICSGTATLEAALVGTPFVLAYKAKAIDIFIAKLFVKLKHIGLANIFCDFAGKEALNPEFLQDKVNVLNLYEAYNKYDYKAFFAKVDFLKEYLQFGSAKNLAKILNEI,not soluble
18,MGSSRKTANAATNNFPCHGSCPEPSFQIQVIARGVRRRRSPIDQPSMEADVDTDIIDHLKTLHTSEIDARNGYEEALEDAEGKGLTSLFRDMIALHHGNAEELAGMLINAGETADDSGSFMSVVHRTIMSVRSLFDGLDGSVLPGLIDGEKRNLSKYDDALKAIAGIPSISSTLSAQRAKISEKIALMEQQKAAYEAAT,not soluble
19,MGSDKIHHHHHHMKEPLSLSFDEQMALFEERGMQMTSKDVEKLKVIGYYRIKQFAAPLANKKIVNENTVYDYKGIYFSDVLKRYYQDKNLRIHLLHAIEKIEVALKTWVAFILGEQYGAFGYLNFSEWCDKNRYSKFEIEKRQFFFKKDLLRATSRSCTEDIKLKKNKEKDNFPSIWLAVEVLTFGELVRLVEIMSTRNKRKLSKMFRCTDIELLSWLKCINFVRNACAHNANVIDLQLETKPVCRSDWKDYLYNVNKSNNGTPSNKLAIVIFIIKTLVTPINERYGWKNIRRNIARLVDSSDKNAHLLGFSDCASAYKVLEKSNGTTTKASLP,not soluble
20,RGVAVYVDHVDGDIHPVTYELIGKARELAAKINHPVYAVFIGQNIKDKAEELLHYGVDEVFVYDDAALKYFRIEPYTKAFEDFINKNKPSTILVGATTVGRSLAPRIAARFRTGLTADCTILDMKENTDLVQIRPAFGGNIMAQIINPNNRPQLATVRYKVMNAPVRSEEKKGKITLCSLKDITSNIEVLKVVKKQVEEN,not soluble
21,MIITQGPQFQGKASKRLHVMAKPIGAVCNIDCSYCYYLSKEDLLEYKKGCSPQMDDETLETYIRQYIEGQNTPEIIFSWQGGEPTLLGLDYFKKIVEFQKKYQPEGILISNDLQTNGTLLTDKWCEFLAENNFLVGLSIDGPEMLHNAYRTNKAGRGTFKQVMNAVELLHKHNVKFATLTCVNNLTSRNPLEVYRFLRDVVKSPQMQFIPIVEQKTFRTVAPQTEQIAAQLRQGDKRLIPGNKESIMEPWCVSDEAWGNFLIAVFDEWTQHDLGKVFVQYFEASVETWMGRKNPLCTLGEICGKGLAMEHNGDVFACDHYVYPEYKIGNIHNEELDTLAFSRKQQEFGFAKSKTLTTQCQKCEYKFACHGECPKNRFIKTRDGEPGLNYLCAGWKKFFAHADKSIAYILKMLGNPVQHGKYSDAKMQQVHQNAFPTKF,not soluble
